We go through one substance from PMC11342371.

Experiment [1] has as its target human C-reactive protein (human) (UniProt P02741). In words: mass photometry; in ammonium acetate; decamer to pentamers.
Experiment [2] has the same target. In words: native MS; 0.5, 1 and 7 uM, ammonium acetate; decamer to pentamers.
The target is the same in experiment [3]. The experiment is described as follows: mass photometry; nanohole-PEG surface (10 ug cm^-2 of 100 nm SNPs), PBS pH 7.2, across different analyte concentrations (500 nM shown), at equilibrium; decamer to pentamers, KD = [monomer]^2/[dimer] with the pentamer as the monomer.

As a reminder, the Kd is a measure of binding affinity in units of concentration. Low values mean a tighter complex, high ones a looser complex. One may read the stoichiometry N as the number of molecules, sites or subunits per partner or assembly. Regarding “human C-reactive protein (from UniProt P02741 19-224) (natural protein)”, the dissociation constant (Kd) in experiment [1] was 3400 nM; in experiment [2], 2460 nM; in experiment [3] it was 2600 nM. Also, the stoichiometry N in experiment [3] worked out at 10.
